Assay: yeast display, Sf9 membrane polyspecificity reagent, FACS + sequencing; frameworks hold sequencing errors
Procedure, shortened: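 Sorting gates, low and high (top ~1%), were placed on anti-HA fluorescence to track expression and on streptavidin fluorescence to track reagent binding. A clone's polyreactivity label is taken from the gate it came out of. The reagent was 10% biotinylated, detergent-solubilized Sf9 membrane, applied for 1 hour at 4 °C to galactose-induced yeast display cells.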
In the case of “QDQLVESRGGLVQAGGSLRISCAASGSPFYRNAKGWNTQAPGKERELVATISTGGVSTYYADSVKGRFTISRDNAKNTVYLQMNSLKPEDTAVYYCAQRTVYLSNLDYWGQGTQVTVTS”, the “polyreactivity (PSR sort gate)” value is reported as “low polyreactivity”.
With “QDQLVESRGGLVQAGGSLRLSCAASGINIGTNAMGWYRQAPGKERELVAAISGGGSTDYADSVKGRFTISRDNAKNPVYLQMNSLKPEDPAFYYCAANTGPVPLKGDYWGQGTQVTVSS” the “polyreactivity (PSR sort gate)” value was “low polyreactivity”.
With “QDQLVESRGGLVQAGGSLRLSCAASGLIFWRYTMGWYSQAPGKERELVAAINRSGGSTYYADSVKGRFTISRDNAKNTVYFQMNSLKPDDPAVYYCAASGYRYPIDGDYWGLGTQVTVSS” the “polyreactivity (PSR sort gate)” value was “high polyreactivity”.
For “QDQLVESRGGLVQAGGSLRLSCAASGRIFGYNAMGWYTQAPGKERELVAGITSVGRTYYADSVKGRFTISRDNAKNTVYLQMNSLKPEDTAVYYCNAASYSLAVTAEYEDMDYWGQGTQVTVTS”, the “polyreactivity (PSR sort gate)” value was “low polyreactivity”.
In the case of “QDQLVESRGGLVQAGGSLRVSCAASGLSFGYYAMGWYRQATGKERELVAAISSSGVNTYYADSVKGRFTISRDNPKNTVYLQMNSLIPEDTAVYYCNTVPKPWYSWKYAYDYWGQGTQVTVSS”, the “polyreactivity (PSR sort gate)” value is reported as “high polyreactivity”.
With “QDQLVESRVGLVQAGGSLRLSCAASGMIIGIYDMGWYRQAPGKERELVAAIRRSGGSTYYADSVKGRFTISRDNAKNTVYLQMYSLKPEDTAAYYCATDAWYYSQTNHDYWGQGTHVTVSS” the “polyreactivity (PSR sort gate)” value was “low polyreactivity”.
In the case of “QDQLVESVGCLVQAGGSLRLSCAASGLTIQRNDMGWYRQAPGKEREFVATITSNAGSTYYADSVKGRFTISRDNAKNTVYLQKNSLKPEDTAVYYCARERWWGGSDYWGQGTQVTVSS”, the “polyreactivity (PSR sort gate)” value is reported as “high polyreactivity”.
For “QDQLVESVGDLVQAGGSLRLSCAASGGIFQKYVMGWYRQAPGKERELVARITSVGSTYYADSVKGRFTISRDNAKNTVYLQMNSLKPEDTAVYYCNAELYRRSQGYRFTAFDYWGQGTQVTVSS”, the “polyreactivity (PSR sort gate)” value was “low polyreactivity”.
For “QDQLVESVGGLVQAGGSLRLIFAASGSILTFYAMGWYRQAPGKERELVAAITWRGCSTYYADSVKGRFTISRDNEKNTVYLQMNSLKPEDTAVYYCAAERYGPRYDYWGQGTQVTLSS”, the “polyreactivity (PSR sort gate)” value was “high polyreactivity”.
For “QDQLVESVGGLVQAGGSLRLSCAASGFTFYNYAMGWYRQAPGKERELVAAISWNGGSTYYADSVKGRFTISRDNAKNTVYLQMNSLKPEDTAVYYCNADISQRTRGYYYVWWSRMDYWGQGTQVTVSS”, the “polyreactivity (PSR sort gate)” value was “low polyreactivity”.
With “QDQLVESVGGLVQAGGSLRLSCAASGLIFSRNVMGWYRQGPGTERELVAAITRSGGSTYYADSVKGRFTISRDNAKNTVYLQMNSLKPVDTAVYYCAASRFNYVYLLKGDYWGQGTQVTVSS” the “polyreactivity (PSR sort gate)” value was “high polyreactivity”.
With “QDQLVESVGGLVQAGGSLRLSCAASGRIVKYAMGWYRQAPGKERELVAAISGSGGTTYYADSVKWRFTISRDNAKNTVYLQMNSQKPEDTAVYYCNKTPRNLRILQHSSQSMDYWGQGTQVTVSS” the “polyreactivity (PSR sort gate)” value was “high polyreactivity”.
With “QDQLVESVGGLVQAGGSLRLSSAASGFIFYLYAIGWDRQAPGKERDLVAAITRRGGSTYYEDSVKGRFTISRDNAKNTVYLQMNSLKPEDTAVYDCAADHYGFFSAGDFDYWGQGTQVNVSS” the “polyreactivity (PSR sort gate)” value was “high polyreactivity”.
In the case of “QDQLVESVVCLVQAGLSLRLSGASSVRIFRYYAMGWYRQAHGKERELVAAINSDGRTYYADSVKGRFTISRDNANNTVYLQMNSLKPEDTAVYYCAADHHSYRYGGYYYWGQGTQVTVAS”, the “polyreactivity (PSR sort gate)” value is reported as “low polyreactivity”.
For “QDQLVESWGGLVQAGCSLRLTCAASGSTFWWYAMGWNRQAPGKQREFDAPINWSGSRTYYADSVKGRFTISRDNAKNTVYLQINSLNPEDTAVYYCAAVGRWGVTGSHHDAYDYWGQGTQVTVSS”, the “polyreactivity (PSR sort gate)” value was “high polyreactivity”.
For “QDQLVESWGGLVQAGGSLRLSCAASGFTFNKYAMGWYRQAPGKERELVAAISSSGGRTSYADSVKGRFTISRDNAKNTVYLQMNSLKPEDTAVYYCNKVSTADMGYWGHGTQVTVSS”, the “polyreactivity (PSR sort gate)” value was “high polyreactivity”.
In the case of “QDQLVESWGGLVQAGGSLRLSCASSGITVYGYTMGWYRQAPGKERELVAGISRGGSTYYADSVKGRFTISRDNAKNTVYLQINSLKPEDTAVYYCAVESFYRHASLYDYWGQGTQVTVSS”, the “polyreactivity (PSR sort gate)” value is reported as “high polyreactivity”.
For “QDQLVETGGGLVQAGGSLRLSCAASRNTFAQKAMGRSRQAPGKERELVAAITDGTSTNYADSVKGRFTISRDNAKNTVYLQMNSLKPEDKAVYYCAAESLYTLFYWGYDYWGQGTQVTVSS”, the “polyreactivity (PSR sort gate)” value was “low polyreactivity”.
For “QDQLVETGLGLVQAGGSLRLSLAASGRTFSYAKAWYRQEPGKERELVAAITKRGGSTNFADSVKGRFTISRDNAKNTVYLQMNSLKPEDTAVYYCATDPYHGSYLTYGRMDYWGQGTQVTVSS”, the “polyreactivity (PSR sort gate)” value was “high polyreactivity”.
In the case of “QDQLVQSGGGLVQAGGSLRLSCDASGGMFDSNAMGRYRQPPGKERELVAAISDSGGSTYYADSVKGRFTISRDNAKNTVYLQMNSLKPEDTAVYYCAGDSDYHFVNYRFGMDYWGQGTQVTVSS”, the “polyreactivity (PSR sort gate)” value is reported as “low polyreactivity”.
In the case of “QDQLVVSGGGLFQAVGSLRLICAASGIFRSYAMGWYRQAPGKERELVAAITGGASGTYYADSVKGRFTISRDNAKNTVYLQMNSLKPEDTAVYFCAAVNRVYFPFRLQVIYGSWGQGTQVTVSS”, the “polyreactivity (PSR sort gate)” value is reported as “high polyreactivity”.
With “QDQRVESGGGLVQAGGSLRLSCAASGITLEFYAMGWYRQAPGNERELVARIRSGGSTNYAVSVKGRFTISRDNAKNTVYLQMNSLKPDDTAVYYCAAYLRTDRYGYWGQGTQVTVSS” the “polyreactivity (PSR sort gate)” value was “high polyreactivity”.
With “QDQRVESGGGLVQAGGSLRLSCAASGRIFGTYTMGWYRQAPGKERELVAAITTGGITNYADSVKGRFTISRDNAKNTVYLQMYSLKPEDTAVYYCNARWDYGAYEYWGQGTQVTVSS” the “polyreactivity (PSR sort gate)” value was “low polyreactivity”.
With “QDQVVESGGGVVQAGGSLRLICAAYGSTLRYYDMGWYRQAPGKERELVAAISRGCSTYYADSVKGRFTISRDNAKNTVYLLMNSLKPEETAVFYCNKEYPSSYEYDYWGQGTQVTVSS” the “polyreactivity (PSR sort gate)” value was “low polyreactivity”.
For “QEHLVESGGGLDQAGGRLRLSCAASGSIFAAYAMGWYRHAPGKERELVAAIKWTDGSTYYADSVKGRFTISRDIAMNTVYLQMNSLKPEDTAVYYCIRRQYGRKKQYDYWVQGTQVTVSS”, the “polyreactivity (PSR sort gate)” value was “high polyreactivity”.
With “QEQHVESGGGLVQAGGSLRLSSAASVNIIGFYAKGWYREAPGKESEFVAAISFGTDRTYYADSVKGRFTISRENAKNTVYLQMNSLKPEDTALYYCNRRCNNGVRYGECDYWGQGTQVTVSS” the “polyreactivity (PSR sort gate)” value was “high polyreactivity”.
In the case of “QEQLQECGGGLVQAGGSLRLSCAASGNVFDADIMGWYRQAPGKERELVASVTDGGSTNYADSVKGRFTFSRDIAKNTVYLQMNSLKPEDTAVYYCAAIVYPDILTYFDYDYDYFYWGQGTQVTVGS”, the “polyreactivity (PSR sort gate)” value is reported as “low polyreactivity”.
With “QEQLQERGGGLVQAGGSLRLSCAASGSIFKVVDMGLYRQAPAKEREFVATIGEGGNTYYADSVKGRFTISRDNAKNTVYLQMNSLKPEDTAVYFYAVVLGTYYRYTYWGQGTQVTVSS” the “polyreactivity (PSR sort gate)” value was “low polyreactivity”.
For “QEQLQESCGGLVLAGGSLRLSCASSGSISAQAYMGWDRQAPGKEREHVAGINYGDNTNYADSVKGRFTISRDNEHRVSADEQPETGRYRGVLLRGFLELFYYYIYWGQGTQVTVSS”, the “polyreactivity (PSR sort gate)” value was “high polyreactivity”.
In the case of “QEQLQESGGGLVKAGGSLRLSCAASGNISPRDAMGWYRQAPGEERDLVASNAYSAITYYADGVKGRYTISRDNAKNTVYVQMNSLKPEDTDVYYCEFYQFTYPVFPAYWGQGTQVTVSS”, the “polyreactivity (PSR sort gate)” value is reported as “low polyreactivity”.
With “QEQLQESGGGLVLAGGSLRLSCSASGNISVYGSMGWYRQAPGKELEFVATIDPGTNTNYADSVKDRFTISRDNAKNTVYLQMNSLKPEDRAVYYCAVEAGSDWPFRYWGQGTQVTVSS” the “polyreactivity (PSR sort gate)” value was “low polyreactivity”.
In the case of “QEQLQVSGGHLVQAGGSLRLSCAASGTIYGLTSMGWYRQAPGKEREFVAAITDGGNTNYADSVKGRFTISRDNAKKTVYLLMFCLKPEDTAVYYCAVLFSDDAYYAYWCQGTQVTVSS”, the “polyreactivity (PSR sort gate)” value is reported as “low polyreactivity”.
For “QEQLVESGAGLVQAGGSLRLSCAASGSIFTLYGMGRYRQAPGKERELVAAITWSGGRTYYADSVKGRFTISRDNAKNTVYLQMNSLKPEDTAVYYCAAYRYVSWYYPDDYWGQGTQVTVSS”, the “polyreactivity (PSR sort gate)” value was “high polyreactivity”.
In the case of “QEQLVESGGGLDQAGGSLRLSCAASGSTFSGYALAWYRQAPGKERELVAAISWRGVRTYYADSVKGRFSISRDNAKNRVYLQMNSLKPEDNAVYYCAAVGYITKEFYWGQGTKVTVSS”, the “polyreactivity (PSR sort gate)” value is reported as “high polyreactivity”.
In the case of “QEQLVESGGGLDQAGGSLRLSCAASGYTFVNYAMGWYRQAPGKERELVAAITSRGSSTYYADSVKGRFTISRDNAKNTVYLQMNSLKPEDTAVYYCAAYSSSLQGGYWGQGTQVTVSS”, the “polyreactivity (PSR sort gate)” value is reported as “high polyreactivity”.
For “QEQLVESGGGLVQAGGSLRLSCAASGFTFYFNAMGWYRQAPGKERELVAGITSDGITYYADSVKGRFTISRDNANNTVYLQMNSLKPEDTAVYYCAARKLEWDIKNDYCGQGTQVTVSS”, the “polyreactivity (PSR sort gate)” value was “low polyreactivity”.
For “QEQLVESGGGLVQAGGSLRLTCAASGRTFFRYARGWYRQAPGKEREVVAAISSGGSTYYADTVKGRFTISRDNAKNTVYLQMNSLKPEDTAVYYCATRNYRLWPYVSVAYDYCGQGTQVTVSS”, the “polyreactivity (PSR sort gate)” value was “high polyreactivity”.
For “QEQQQESGGGLVQAGGSQRLSCAASGYIFYFQYMGWYRQAPGKEREFVAAISDGANTNYADSVKGRFTISRDNAINTEYLQMNSLKPEDTAVYYCAVYADENYYYIYWGQGTQVTVSS”, the “polyreactivity (PSR sort gate)” value was “low polyreactivity”.
In the case of “QFHLVESGGGLVHAGGSLRLSCAASGNIFPPNTMGWYRQAPGKATELVAVITWSDGGTYADSVKGRFTISRDNAKKTVYLQMNSLKPEDTAVYYCNADYYFAAPKGEYTAWYDYWGKGTQVTVSS”, the “polyreactivity (PSR sort gate)” value is reported as “low polyreactivity”.
With “QFHLVESGGGLVQAGGSLRLSCAASGRIFSEYAMGWYRQAHGKEMELVASISTSGGSTYYADSVKGRFTISRDNAKNTVYLQKYSLKPEDTEVYYCNVAYYRYPSYTYGYDHWGQGTQVTVSS” the “polyreactivity (PSR sort gate)” value was “high polyreactivity”.
For “QFHLVESGGGLVQAGGSLRLSCAAYGIIFYSYTMGWYRQAPGKERELVAAISRSGGSTYYADSVKGRFTISRDNAKNTVYLQMNSLKPEDTAVYYCAQVGNTAGYDYWGQGSQVTVSS”, the “polyreactivity (PSR sort gate)” value was “high polyreactivity”.
In the case of “QFQIVDSLEGLVQEAGTLRLSSAASGSIFYRYAKGGYRQAPRKERELVATITSSGGRTYYADSVKGRFTISRDNAKNTVYLQMNSLKPEDTAVNYCKPRDWGRTRGGGYPWLYRYDYWGQGTQVTVSS”, the “polyreactivity (PSR sort gate)” value is reported as “low polyreactivity”.
For “QFQIVESGGGLVQAGGSLRLSCDASGSIFTWYAMGWYRQAPGKERELVAAITRGGSTYADSVKGRFTISRDNAKNSVYLQMNSLKPEDTAVYYCNAVYGVYDFNYWGQGTQVTVSP”, the “polyreactivity (PSR sort gate)” value was “low polyreactivity”.

From the nanobody polyreactivity screen of Harvey et al. (2022)
